Test results reported in patent US20210130870, “VISUAL AND MODULAR DETECTION OF NUCLEIC ACIDS WITH ENZYME-ASSISTED NANOTECHNOLOGY” (National University of Singapore, published 2021).

Target: Taq DNA polymerase (UniProt P19821 P19821:1-832)
Assay: BLI; 50 mM NaCl, 1.5 mM MgCl2, 50 mM Tris-HCl pH 8.5; immobilized biotin-aptamer; sensorgram only
Details: tags: GoTaq (Promega); label: biotin on aptamer for BLI; 20 bp duplex with 20 nt inverter overhang, conserved region CAATGTACAGTATTG

Taq DNA polymerase, sequence (P19821 whole entry, one chain of several): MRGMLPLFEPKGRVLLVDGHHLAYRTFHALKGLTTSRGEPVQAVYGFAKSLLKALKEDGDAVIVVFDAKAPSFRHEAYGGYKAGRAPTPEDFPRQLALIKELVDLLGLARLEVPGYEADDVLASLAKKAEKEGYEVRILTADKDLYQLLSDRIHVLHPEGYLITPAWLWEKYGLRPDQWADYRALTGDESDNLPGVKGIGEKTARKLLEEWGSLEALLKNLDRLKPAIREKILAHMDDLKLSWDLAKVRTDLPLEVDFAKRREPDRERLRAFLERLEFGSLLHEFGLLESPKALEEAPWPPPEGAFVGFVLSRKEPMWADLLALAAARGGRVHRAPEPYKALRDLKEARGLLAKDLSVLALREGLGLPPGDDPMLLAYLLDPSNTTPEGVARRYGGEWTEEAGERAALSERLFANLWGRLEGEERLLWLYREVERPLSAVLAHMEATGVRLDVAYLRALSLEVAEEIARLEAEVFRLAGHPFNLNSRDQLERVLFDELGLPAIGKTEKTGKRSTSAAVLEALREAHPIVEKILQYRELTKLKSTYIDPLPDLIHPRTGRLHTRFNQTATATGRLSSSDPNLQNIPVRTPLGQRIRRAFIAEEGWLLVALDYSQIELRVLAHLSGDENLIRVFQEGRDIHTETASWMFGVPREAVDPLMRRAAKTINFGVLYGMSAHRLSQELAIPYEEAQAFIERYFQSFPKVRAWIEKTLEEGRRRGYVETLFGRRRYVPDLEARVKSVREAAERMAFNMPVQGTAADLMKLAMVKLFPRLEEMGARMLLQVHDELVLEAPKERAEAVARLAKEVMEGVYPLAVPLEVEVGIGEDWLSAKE

B1: HPV16 L2 aptamer/inverter recognition nanostructure (structured_DNA)
DNA 1: AAGTATCTGTAATAAAGTCACAATGTACAGTATTG
DNA 2: TGACTTTATTACAGATACTTCTACAACCCCGGTACCATCT
B1: binds.
